Assay [1] deals with rhTNFα labeled in the amine groups (NT-650, NHS-coupling) (human) (UniProt P01375). Put plainly: MST.
In assay [2] the target is recombinant human TNFα (soluble human TNFα, residues 85-233, C-terminal His tag) (human) (UniProt P01375). Put plainly: ELISA.
Assay [3] addresses Adalimumab labeled with NT-647 in the thiol groups (Cys-coupling) (human). Put plainly: MST.

In the case of Adalimumab (Humira) (antibody), in assay [1], the KD of the first phase (Adalimumab 30.5 pM to 7.8 nM) was 100 pM and the KD of the second phase (Adalimumab 1.95 to 1 µM) was found to be 21 nM. In assay [2], the Kd – broadly, a measure of binding affinity in units of concentration – was determined as 1.32 nM; the OD50 (antagonist concentration at half-maximal OD), rhTNFα coated at 1,25 µg/ml came out at 0.641 nM; the OD50 (antagonist concentration at half-maximal OD), rhTNFα coated at 2,5 µg/ml was 0.622 nM.

“recombinant human TNFα (soluble human TNFα, residues 85-233, C-terminal His tag) (from UniProt P01375 85-233) (ligand)” came in with a Kd in assay [3] of 29.6 nM.
